Results: patent publication US6133013A, “Truncated aspartase enzyme derivatives and uses thereof” (The University of Akron, priority 1999, dated 2000)

Substrate: N[C@@H](CC(=O)O)C(=O)O
Assay: Spectrophotometric aspartase assay, deamination of L-aspartic acid to fumarate (240 nm)
Assay type: biochemical, Escherichia coli
Conditions: 30 mM Hepes pH 7.0, 10 mM magnesium acetate, 30° C.
Description: Catalytic activity was determined spectrophotometrically by measuring the formation of fumarate at 240 nm (E240 =2.53 mM^-1 cm^-1) produced by the enzyme-catalyzed deamination of aspartic acid. A standard assay mix contained 30 mM Hepes buffer, pH 7.0, 10 mM magnesium acetate, and varying concentrations of L-aspartic acid at 30° C.

B1: E. coli aspartase truncated variant D474stop, residues 1-473 of SEQ ID NO: 1 (Escherichia coli K-12) (protein)
chain: MSNNIRIEEDLLGTREVPADAYYGVHTLRAIENFYISNNKISDIPEFVRGMVMVKKAAAMANKELQTIPKSVANAIIAACDEVLNNGKCMDQFPVDVYQGGAGTSVNMNTNEVLANIGLELMGHQKGEYQYLNPNDHVNKCQSTNDAYPTGFRIAVYSSLIKLVDAINQLREGFERKAVEFQDILKMGRTQLQDAVPMTLGQEFRAFSILLKEEVKNIQRTAELLLEVNLGATAIGTGLNTPKEYSPLAVKKLAEVTGFPCVPAEDLIEATSDCGAYVMVHGALKRLAVKMSKICNDLRLLSSGPRAGLNEINLPELQAGSSIMPAKVNPVVPEVVNQVCFKVIGNDTTVTMAAEAGQLQLNVMEPVIGQAMFESVHILTNACYNLLEKCINGITANKEVCEGYVYNSIGIVTYLNPFIGHHNGDIVGKICAETGKSVREVVLERGLLTEAELDDIFSVQNLMHPAYKAKRYT
notes: made in house; host or cells: E. coli overproducing strain
- Km (other: D474stop): 2.8 mM
- kcat (other: D474stop): 0.712 ± 0.127 s⁻¹
- kcat/Km (other: D474stop): 255 M⁻¹ s⁻¹

B2: E. coli aspartase truncated variant Y467stop (stop codon at position 467) (Escherichia coli K-12; E32V) (protein)
chain: MSNNIRIEEDLLGTREVPADAYYGVHTLRAIVNFYISNNKISDIPEFVRGMVMVKKAAAMANKELQTIPKSVANAIIAACDEVLNNGKCMDQFPVDVYQGGAGTSVNMNTNEVLANIGLELMGHQKGEYQYLNPNDHVNKCQSTNDAYPTGFRIAVYSSLIKLVDAINQLREGFERKAVEFQDILKMGRTQLQDAVPMTLGQEFRAFSILLKEEVKNIQRTAELLLEVNLGATAIGTGLNTPKEYSPLAVKKLAEVTGFPCVPAEDLIEATSDCGAYVMVHGALKRLAVKMSKICNDLRLLSSGPRAGLNEINLPELQAGSSIMPAKVNPVVPEVVNQVCFKVIGNDTTVTMAAEAGQLQLNVMEPVIGQAMFESVHILTNACYNLLEKCINGITANKEVCEGYVYNSIGIVTYLNPFIGHHNGDIVGKICAETGKSVREVVLERGLLTEAELDDIFSVQNLMHPA
notes: made in house; host or cells: E. coli (aspA in pTZ18R)
- Km (other: Y467stop): 31 mM
- kcat (other: Y467stop): 0.0417 ± 0.013 s⁻¹
- kcat/Km (other: Y467stop): 1.33 M⁻¹ s⁻¹

B3: E. coli aspartase truncated variant A469stop, residues 1-468 of SEQ ID NO: 1 (Escherichia coli K-12) (protein)
chain: MSNNIRIEEDLLGTREVPADAYYGVHTLRAIENFYISNNKISDIPEFVRGMVMVKKAAAMANKELQTIPKSVANAIIAACDEVLNNGKCMDQFPVDVYQGGAGTSVNMNTNEVLANIGLELMGHQKGEYQYLNPNDHVNKCQSTNDAYPTGFRIAVYSSLIKLVDAINQLREGFERKAVEFQDILKMGRTQLQDAVPMTLGQEFRAFSILLKEEVKNIQRTAELLLEVNLGATAIGTGLNTPKEYSPLAVKKLAEVTGFPCVPAEDLIEATSDCGAYVMVHGALKRLAVKMSKICNDLRLLSSGPRAGLNEINLPELQAGSSIMPAKVNPVVPEVVNQVCFKVIGNDTTVTMAAEAGQLQLNVMEPVIGQAMFESVHILTNACYNLLEKCINGITANKEVCEGYVYNSIGIVTYLNPFIGHHNGDIVGKICAETGKSVREVVLERGLLTEAELDDIFSVQNLMHPAYK
notes: as for B1
- Km (other: A469stop): 10.2 mM
- kcat (other: A469stop): 0.66 ± 0.0167 s⁻¹
- kcat/Km (other: A469stop): 65 M⁻¹ s⁻¹

B4: E. coli aspartase truncated variant Y472stop, residues 1-471 of SEQ ID NO: 1 (Escherichia coli K-12) (protein)
chain: MSNNIRIEEDLLGTREVPADAYYGVHTLRAIENFYISNNKISDIPEFVRGMVMVKKAAAMANKELQTIPKSVANAIIAACDEVLNNGKCMDQFPVDVYQGGAGTSVNMNTNEVLANIGLELMGHQKGEYQYLNPNDHVNKCQSTNDAYPTGFRIAVYSSLIKLVDAINQLREGFERKAVEFQDILKMGRTQLQDAVPMTLGQEFRAFSILLKEEVKNIQRTAELLLEVNLGATAIGTGLNTPKEYSPLAVKKLAEVTGFPCVPAEDLIEATSDCGAYVMVHGALKRLAVKMSKICNDLRLLSSGPRAGLNEINLPELQAGSSIMPAKVNPVVPEVVNQVCFKVIGNDTTVTMAAEAGQLQLNVMEPVIGQAMFESVHILTNACYNLLEKCINGITANKEVCEGYVYNSIGIVTYLNPFIGHHNGDIVGKICAETGKSVREVVLERGLLTEAELDDIFSVQNLMHPAYKAKR
notes: as for B1
- Km (other: Y472stop): 3.3 mM
- kcat (other: Y472stop): 1.62 ± 0.102 s⁻¹
- kcat/Km (other: Y472stop): 492 M⁻¹ s⁻¹

B5: E. coli aspartase truncated variant R471stop, residues 1-470 of SEQ ID NO: 1 (Escherichia coli K-12) (protein)
chain: MSNNIRIEEDLLGTREVPADAYYGVHTLRAIENFYISNNKISDIPEFVRGMVMVKKAAAMANKELQTIPKSVANAIIAACDEVLNNGKCMDQFPVDVYQGGAGTSVNMNTNEVLANIGLELMGHQKGEYQYLNPNDHVNKCQSTNDAYPTGFRIAVYSSLIKLVDAINQLREGFERKAVEFQDILKMGRTQLQDAVPMTLGQEFRAFSILLKEEVKNIQRTAELLLEVNLGATAIGTGLNTPKEYSPLAVKKLAEVTGFPCVPAEDLIEATSDCGAYVMVHGALKRLAVKMSKICNDLRLLSSGPRAGLNEINLPELQAGSSIMPAKVNPVVPEVVNQVCFKVIGNDTTVTMAAEAGQLQLNVMEPVIGQAMFESVHILTNACYNLLEKCINGITANKEVCEGYVYNSIGIVTYLNPFIGHHNGDIVGKICAETGKSVREVVLERGLLTEAELDDIFSVQNLMHPAYKAK
notes: as for B1
- Km (other: R471stop): 4.5 mM
- kcat (other: R471stop): 1.18 ± 0.0483 s⁻¹
- kcat/Km (other: R471stop): 262 M⁻¹ s⁻¹

B6: E. coli aspartase (L-aspartate ammonia-lyase, E.C. 4.3.1.1), wild-type, SEQ ID NO: 1 (Escherichia coli K-12) (protein)
chain: MSNNIRIEEDLLGTREVPADAYYGVHTLRAIENFYISNNKISDIPEFVRGMVMVKKAAAMANKELQTIPKSVANAIIAACDEVLNNGKCMDQFPVDVYQGGAGTSVNMNTNEVLANIGLELMGHQKGEYQYLNPNDHVNKCQSTNDAYPTGFRIAVYSSLIKLVDAINQLREGFERKAVEFQDILKMGRTQLQDAVPMTLGQEFRAFSILLKEEVKNIQRTAELLLEVNLGATAIGTGLNTPKEYSPLAVKKLAEVTGFPCVPAEDLIEATSDCGAYVMVHGALKRLAVKMSKICNDLRLLSSGPRAGLNEINLPELQAGSSIMPAKVNPVVPEVVNQVCFKVIGNDTTVTMAAEAGQLQLNVMEPVIGQAMFESVHILTNACYNLLEKCINGITANKEVCEGYVYNSIGIVTYLNPFIGHHNGDIVGKICAETGKSVREVVLERGLLTEAELDDIFSVQNLMHPAYKAKRYTDESEQ
notes: made in house; host or cells: E. coli overproducing strain (aspA in pTZ18R)
- Km (other: wild-type): 1.8 mM
